± gives the uncertainty stated by the source.
Experiment: protein stability index of a GFP-peptide fusion (yeast GPS) (PSI 1-4); higher = more stable; sorted into four equal gates, so the index is relative within each strain
Conditions: doa10∆
Procedure, shortened: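 Peptides tiling yeast proteins in 17-residue segments were fused downstream of GFP, with Cherry expressed from the same plasmid. As a pooled library in yeast, mid-log cultures grown in leucine-free medium were sorted into four equal gates by GFP/Cherry fluorescence ratio. Gate plasmids were PCR-amplified and Illumina-sequenced, and barcodes linked reads to strains. Each peptide received a protein stability index equal to the sum of each gate's read frequency times its gate number.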

Row | Sequence | protein stability index
1 | EQTVEYMVSRAIRDGVI [RPN3] | 3.47 ± 0.15
2 | ERAAQKLRLDQLVIQQG [ISW2] | 2.49 ± 0.11
3 | ERGFACIPLVGISVPFH [FAS1] | 1.34 ± 0.06
4 | ERHQKQLNEKLVGRLRK [YCS4] | 3.19 ± 0.12
5 | ERLHELKKLQSDIESAN [SMC1] | 2.99 ± 0.076
6 | ERLKQLTPNEIKELEHL [SWP82] | 2.83 ± 0.064
7 | ERLMISSDAFEVDVCDK [RET1] | 2.31 ± 0.11
8 | ERLTNSLMMNGRNNGKK [RPS5] | 2.98 ± 0.099
9 | ERNAFLSDYEVLKFLTD [RPC17] | 3.44 ± 0.096
10 | ERNNIGEICKNYELEKI [YDL116W/NUP84] | 2.91 ± 0.14
11 | ERQQDELENFLDNFETK [YJL041W/NSP1] | 3.23 ± 0.16
12 | ERVIVVTGFAEVGPWGS [FAS2] | 1.16 ± 0.085
13 | ESDNYRLLPNGSNKAQI [YML031W/NDC1] | 3.08 ± 0.061
14 | ESEQELSLHTGFIENCN [MTR3] | 2.62 ± 0.067
15 | ESESERKYDLFQNLELE [SMC2] | 3.37 ± 0.074
16 | ESFAELMTKLNSFKLFK [RPC17] | 3.03 ± 0.1
17 | ESGKVFIGRLPIMLRSK [RPB2] | 2.83 ± 0.1
18 | ESLKNLNESRSQHKKIL [SMC3] | 2.78 ± 0.13
19 | ESLTNSNMFDNSADVDM [YGL100W/SEH1] | 3.34 ± 0.085
20 | ESMAYTAFQTQRTAQDR [YML031W/NDC1] | 3.27 ± 0.076
21 | ESNIKMTLEDNNVTSNP [SSN2] | 2.91 ± 0.092
22 | ESRAQNVFGQDNEDSDN [SWI3] | 3.24 ± 0.1
23 | ESRSFSPIPFPPLTYKN [PRP8] | 3.04 ± 0.074
24 | ESYYNWKYNNFLQKFEI [YML103C/NUP188] | 2.47 ± 0.056
25 | ETAAMASLALAHVFVGT [RPN1] | 1.39 ± 0.044
26 | ETALEFLEKEKQLTLLR [SMC4] | 3.46 ± 0.1

Row | Sequence | protein stability index
27 | ETATLIMNELYRMKGGR [SMC3] | 3.07 ± 0.088
28 | ETFQDTFSGALGKQSSS [FAS2] | 3.23 ± 0.063
29 | ETLAYNSLKETLQDFHL [SNF2] | 2.88 ± 0.054
30 | ETLENNIVSVLTAGVNS [RPN11] | 2.5 ± 0.1
31 | ETLVLDEADKMIDLGFE [PRP28] | 3.18 ± 0.094
32 | ETLVLSYFSPINSSNEA [YCG1] | 2.67 ± 0.096
33 | ETRNGKVKNQGADVTNT [YCS4] | 3.22 ± 0.1
34 | ETRRKTTTVLKRYANHT [RET1] | 2.14 ± 0.083
35 | ETVKLPRVSNQSNEDTF [RRI2] | 3.06 ± 0.13
36 | EVAQYLQEIYQTDAIKS [RPN5] | 2.3 ± 0.084
37 | EVESSDTIDNVKSKIQD [RPS31] | 3.11 ± 0.21
38 | EVLTYVNYLISNTMYSV [YJL039C/NUP192] | 2.45 ± 0.056
39 | EVPEGVTVSIKSRIVKV [RPL9A] | 1.51 ± 0.064
40 | EVYDFTHAVGNNCEDFV [FAS1] | 3.15 ± 0.12
41 | EWRKSAIANTLLYLRLK [PRP8] | 1.85 ± 0.063
42 | EYEELKEKIEKLSKSAT [SMC1] | 3.33 ± 0.12
43 | EYFGGESPVDVQSQVDS [FAS1] | 3.01 ± 0.14
44 | EYIELEYRDLYTNSVEL [YMR129W/POM152] | 3.16 ± 0.11
45 | EYKKHFPPNLEKGENPS [UBP6] | 2.9 ± 0.097
46 | EYKSLFVVGVDNVSSQQ [RPP0] | 3.22 ± 0.055
47 | EYKTSSDSLGPDTSNEI [SRB2] | 2.67 ± 0.23
48 | EYKVITSLQGTYEAIEI [YMR129W/POM152] | 3.34 ± 0.2
49 | EYLTLNDFNDLNIDWST [MED2] | 2.83 ± 0.06
50 | EYMVQYIDEMYNHNDGG [RRI1] | 3.03 ± 0.052
51 | EYNKPNSEKFVFLLTTR [ISW2] | 3.09 ± 0.19
52 | EYSPEILQIREEIPSKS [RRP6] | 2.66 ± 0.068

Row | Sequence | protein stability index
53 | EYSYVDSNMDSISSVVS [RPN4] | 2.84 ± 0.075
54 | EYYRIQKQLPQKTRVKL [ESC2] | 2.79 ± 0.055
55 | FANNHFLNSNAVVVGTG [COR1] | 1.41 ± 0.064
56 | FAWSKPSTGSNLQQQQQ [YGR119C/NUP57] | 3.02 ± 0.061
57 | FDDSDITKFALFAESHD [YML103C/NUP188] | 2.71 ± 0.3
58 | FDENIARDIISHNFQNA [PCI8] | 2.74 ± 0.053
59 | FDFLMNMPNCDYLTLNK [RPN2] | 2.76 ± 0.054
60 | FDGFLFGSRVMIAKEVK [FAS1] | 2.58 ± 0.15
61 | FDIIEESFKGLQPFWFR [ECM29] | 2.63 ± 0.11
62 | FDNYQRNNFLAENSHTQ [PUP1] | 3.3 ± 0.081
63 | FDTVSNKLFTEPIKLEP [YMR129W/POM152] | 2.58 ± 0.046
64 | FEASCMEGQKLDDPVLN [YJR042W/NUP85] | 1.83 ± 0.088
65 | FEGTPPFSLTYVRTEET [YMR129W/POM152] | 2.31 ± 0.052
66 | FEGWGHEYIRHLALEIG [RPN1] | 2.18 ± 0.098
67 | FEKKLSIIKAKLPLLNE [YML103C/NUP188] | 2.34 ± 0.095
68 | FELFDNKTAHLSIPGKS [SNU114] | 2.11 ± 0.04
69 | FEQDSHLRYQPDGVVVH [SNF6] | 3.09 ± 0.087
70 | FEQTAFSRHAQQQTSTF [SIR4] | 1.94 ± 0.07
71 | FETFLVDVNNKFIALCE [SIN4] | 2.94 ± 0.062
72 | FEYVLYPSKTLKTDGVR [FAS2] | 2.42 ± 0.08
73 | FFLGYMINRLLLCALDR [RPB2] | 1.51 ± 0.17
74 | FFLQRKLRSELGYKDTS [BRR2] | 2.11 ± 0.091
75 | FFNGKALNNAIPGGPKF [PRP8] | 3.29 ± 0.13
76 | FFRNKLKYHDFLRKATA [RPL16B] | 2.02 ± 0.085
77 | FGHLMHYGNEHIRRMVP [RPN1] | 1.71 ± 0.042
78 | FGNIMDNLLEMSDHSLD [RRP6] | 2.42 ± 0.074

Row | Sequence | protein stability index
79 | FGPHVDVNDVLTKYIRS [GRR1] | 3.3 ± 0.056
80 | FGQASGASTGNANTGFS [YGL172W/NUP49] | 3.18 ± 0.28
81 | FGQDVSPMINSTSSGKV [SNM1] | 2.81 ± 0.1
82 | FGSADDTYPYLTGEWST [FAS1] | 2.32 ± 0.067
83 | FGSKPTGATSLFGSSNN [YGL172W/NUP49] | 3.39 ± 0.11
84 | FGYPETIANSIILHFAN [YMR153W/NUP53] | 2.05 ± 0.062
85 | FHGTSTKANDKNESATI [FAS2] | 3.06 ± 0.12
86 | FHSEPDRDENWIHVSCL [LIN1] | 3.16 ± 0.075
87 | FICSIIQTVVISLLALP [YML031W/NDC1] | 1.43 ± 0.11
88 | FIDHHAAIRQPTRYVLI [POP1] | 1.72 ± 0.066
89 | FIDSICKLFDKISFNLR [SRB8] | 2.23 ± 0.054
90 | FIKVVNYNHLLPTRYTL [RPL27A] | 2.34 ± 0.06
91 | FILLDRLRQFNLQPIST [SMC4] | 2.22 ± 0.04
92 | FINNVLSNPSNQNICTS [GRR1] | 2.42 ± 0.074
93 | FITAKDKYKLYPVRIPR [YJR042W/NUP85] | 2.87 ± 0.06
94 | FIYGMSAKDHPKVKEIK [PRP8] | 2.53 ± 0.25
95 | FKDRFKDEPVQNDILQE [FAS2] | 3.35 ± 0.13
96 | FKGHSHIVQDCTLTADG [ASC1] | 1.67 ± 0.066
97 | FKHGPMSLINDAMVTRT [SMD2] | 2.9 ± 0.11
98 | FKIHTAKVKKTGEFDFE [RPT4] | 2.3 ± 0.11
99 | FKIWHGEINKICMESLF [PCI8] | 1.83 ± 0.1
100 | FKKAAPSPISHVAEIRS [RPB2] | 1.92 ± 0.051
101 | FKKDFEVNISSLDAREA [RPC40] | 2.07 ± 0.059

From the supplement of paper PMC9732359
